According to paper PMC6858450:
Primed or numbered codes have the meaning given here. No end group written: not given here. *: point of attachment. Mca = COc1ccc2c(CC(=O)*)cc(=O)oc2c1; Dnp′ = not defined here

B1: securin^RE fragment (aa 93-150) (domain or fragment)
chain: MTEKTVKAKSSVPASDDAYPEIEKFREFNPLDFESFDLPEEHQIAHLPLSGVPLMILD
modifications: also: 35S-methionine-labeled
B2: separase biosensor H2B-mRuby2-Scc1(142-467)-mNeonGreen, ^255Leu-Pro to Ala-Ala (domain or fragment)
chain: EITMREEVGNISILQENDFGDFGMDDREIMREGSAFEDDDMLVSTTTSNLLLESEQSTSNLNEKINHLEYEDQYKDDNFGEGNDGGILDDKLISNNDGGIFDDPPALSEAGVMAAEQPAHDDMDEDDNVSMGGPDSPDSVDPVEPMPTMTDQTTLVPNEEEAFALEPIDITVKETKAKRKRKLIVDSVKELDSKTIRAQLSDYSDIVTTLDLAPPTKKLMMWKETGGVEKLFSLPAQPLWNNRLLKLFTRCLTPLVPEDLRKRRKGGEADNLDEFLKEFENPEVPREDQQQQHQQRDVIDEPIIEEPSRLQESVMEASRTNIDESA

Assays:
[1] = test system: securin-separase fusion C2029S (catalytically dead) (Homo sapiens); test: fluorescence polarization; conditions: 25 mM HEPES pH 7.8, 50 mM KCl, 5 mM MgCl2, 0.5 mM TCEP; 1 nM DNA; 30 min at 25 °C
[2] = target: active (apo, securin-free) human separase (human) (UniProt Q14674)
UniProt Q14674, sequence (Q14674 whole entry S1126A): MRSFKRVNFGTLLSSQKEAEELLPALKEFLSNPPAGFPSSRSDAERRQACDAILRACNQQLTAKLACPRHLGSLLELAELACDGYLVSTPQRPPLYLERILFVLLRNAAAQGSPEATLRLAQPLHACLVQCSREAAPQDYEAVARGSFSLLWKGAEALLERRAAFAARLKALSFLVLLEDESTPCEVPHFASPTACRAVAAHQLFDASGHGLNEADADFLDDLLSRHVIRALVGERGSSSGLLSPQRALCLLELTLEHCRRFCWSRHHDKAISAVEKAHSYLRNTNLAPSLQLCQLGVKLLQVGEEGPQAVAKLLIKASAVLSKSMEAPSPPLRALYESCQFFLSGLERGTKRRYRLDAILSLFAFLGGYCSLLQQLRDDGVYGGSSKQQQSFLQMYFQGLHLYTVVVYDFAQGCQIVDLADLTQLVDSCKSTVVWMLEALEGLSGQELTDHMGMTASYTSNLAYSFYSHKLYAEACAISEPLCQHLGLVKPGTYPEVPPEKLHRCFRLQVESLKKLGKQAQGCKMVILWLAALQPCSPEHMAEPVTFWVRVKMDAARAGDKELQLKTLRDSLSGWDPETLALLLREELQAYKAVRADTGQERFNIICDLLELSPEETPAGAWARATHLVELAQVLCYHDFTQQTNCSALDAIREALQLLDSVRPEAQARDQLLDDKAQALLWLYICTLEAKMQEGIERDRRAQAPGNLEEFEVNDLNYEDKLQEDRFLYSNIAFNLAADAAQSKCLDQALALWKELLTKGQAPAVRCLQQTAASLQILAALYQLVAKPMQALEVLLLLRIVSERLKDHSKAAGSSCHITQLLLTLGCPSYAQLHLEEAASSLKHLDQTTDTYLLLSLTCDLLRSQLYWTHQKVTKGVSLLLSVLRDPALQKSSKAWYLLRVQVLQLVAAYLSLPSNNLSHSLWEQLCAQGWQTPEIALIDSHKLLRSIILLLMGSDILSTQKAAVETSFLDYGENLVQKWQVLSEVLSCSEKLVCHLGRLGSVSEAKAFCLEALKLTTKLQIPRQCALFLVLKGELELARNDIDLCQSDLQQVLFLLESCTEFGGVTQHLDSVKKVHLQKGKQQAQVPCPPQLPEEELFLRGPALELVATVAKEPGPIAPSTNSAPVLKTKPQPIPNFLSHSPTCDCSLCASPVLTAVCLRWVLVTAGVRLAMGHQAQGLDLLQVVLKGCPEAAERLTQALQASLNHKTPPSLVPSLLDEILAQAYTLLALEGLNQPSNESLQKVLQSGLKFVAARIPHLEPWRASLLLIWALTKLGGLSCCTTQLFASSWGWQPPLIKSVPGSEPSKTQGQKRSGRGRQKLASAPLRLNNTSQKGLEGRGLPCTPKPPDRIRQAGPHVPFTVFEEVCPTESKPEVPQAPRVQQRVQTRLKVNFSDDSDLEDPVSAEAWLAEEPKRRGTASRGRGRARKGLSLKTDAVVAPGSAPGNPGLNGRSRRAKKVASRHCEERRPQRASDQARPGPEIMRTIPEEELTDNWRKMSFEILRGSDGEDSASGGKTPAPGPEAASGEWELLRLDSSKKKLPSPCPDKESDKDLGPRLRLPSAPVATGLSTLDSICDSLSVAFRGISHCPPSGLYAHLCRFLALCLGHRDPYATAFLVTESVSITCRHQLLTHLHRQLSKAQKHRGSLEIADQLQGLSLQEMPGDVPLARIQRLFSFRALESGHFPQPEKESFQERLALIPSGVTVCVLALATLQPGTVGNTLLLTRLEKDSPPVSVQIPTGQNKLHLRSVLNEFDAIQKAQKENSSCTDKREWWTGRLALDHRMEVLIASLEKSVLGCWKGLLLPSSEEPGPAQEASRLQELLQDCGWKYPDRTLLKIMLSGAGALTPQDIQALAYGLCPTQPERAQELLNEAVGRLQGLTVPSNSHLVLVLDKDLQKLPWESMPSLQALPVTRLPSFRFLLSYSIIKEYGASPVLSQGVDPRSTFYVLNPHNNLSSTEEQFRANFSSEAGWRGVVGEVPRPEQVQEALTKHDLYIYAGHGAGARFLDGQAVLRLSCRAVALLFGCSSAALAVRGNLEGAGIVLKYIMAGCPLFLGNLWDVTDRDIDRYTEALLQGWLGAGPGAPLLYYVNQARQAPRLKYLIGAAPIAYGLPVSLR

[3] = target: active (apo, securin-free) human separase (human) (UniProt Q14674); remark: listed apart in the source
[4] = target: active (apo, securin-free) human separase (human) (UniProt Q14674); remark: listed apart in the source

Molecule	Kd [1]	other results
25 bp	800 nM	
50 bp	300 nM	
50 bp 2	220 nM	
B1		cleavage of the 35S-labeled securin^RE fragment (93-150) by separase in vitro (SDS-PAGE, Phosphorimaging) [2]: 50%
B2		cleavage of the separase biosensor in U2OS cells in anaphase (loss of GFP relative to RFP on chromosomes); the enzyme is the endogenous separase of the cells [3]: 50%
Mca-DDREIMREGS-{Dnp′} [Mca-…-Dnp, Scc1 site 1 substrate peptide]		KM of cleavage of the FRET dye-quencher peptide by purified active separase (Michaelis-Menten analysis) [4]: 70 µM
